Target: chicken IgY (chicken)
Assay: BLI; Octet SAX biosensors, as described previously (ref. 10); kinetic 1:1 model, global fits over multiple Fab concentrations

Chain of chicken IgY (chicken) (main, as listed by the source): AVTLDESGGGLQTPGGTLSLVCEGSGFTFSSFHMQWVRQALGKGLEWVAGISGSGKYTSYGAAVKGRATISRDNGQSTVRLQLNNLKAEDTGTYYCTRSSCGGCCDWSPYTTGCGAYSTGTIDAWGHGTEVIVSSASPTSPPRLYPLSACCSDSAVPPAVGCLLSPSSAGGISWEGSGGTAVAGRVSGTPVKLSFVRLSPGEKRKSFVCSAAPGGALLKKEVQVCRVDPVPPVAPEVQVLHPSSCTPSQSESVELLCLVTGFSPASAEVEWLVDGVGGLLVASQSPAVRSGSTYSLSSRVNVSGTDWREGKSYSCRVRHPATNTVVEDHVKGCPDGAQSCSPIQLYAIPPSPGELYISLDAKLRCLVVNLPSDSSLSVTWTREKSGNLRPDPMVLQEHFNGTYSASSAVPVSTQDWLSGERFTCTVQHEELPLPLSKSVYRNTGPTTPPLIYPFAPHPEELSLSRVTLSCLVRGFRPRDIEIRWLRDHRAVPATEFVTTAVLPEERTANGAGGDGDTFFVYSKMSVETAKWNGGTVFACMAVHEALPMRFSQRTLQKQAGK

B1: 2.1^hi Fab (D28HA, K49HR, S64HG, A40LG, Y42LF, A52LS, Q105LH, N108LY) (Fab, V domains shown)
VH: EVQLQESGPSLVKPSQTLSLTCSVTGASITSGYWNWIRKFPGNRLEYMGYISYSGGTYYNPSLKSRISITRDTSKNQYYLQLNSVTTEDTATYYCARDFDVWGAGTTVTVSS
VL: DIVMTQSQKFMSTSVGDRVSVTCKASQNVGTNVGWFQQKPGQSPKSLIYSASYRYSGVPDRFTGSGSGTDFTLTISNVQSEDLAEYFCHQYYSYPLTFGSGTKLEIK
- Kd: 0.062 nM
